In publication PMC3742539, “ε Subunit of Bacillus subtilis F1-ATPase Relieves MgADP Inhibition” (PLoS ONE, 2013):

Target: T1, γ^S3C subunit of BF1 (Bacillus subtilis, UniProt P37810 1-287, S3C)
T1 construct: F1-ATPase γ subunit, Bacillus subtilis, with γSer3 to Cys; Stood in the assay as a subunit of the α3β3γ^S3C complex, never isolated alone; source: E. coli BL21(DE3), co-expressed with α and His6-β, purified as part of the α3β3γ^S3C complex
Test: cross-linking; disulfide cross-linking without ATP: α3β3γ^S3C and ε^133C mixed 1:10, excess ε removed by ultrafiltration (100-kDa cutoff), 50 µM CuCl2, 1 h, 25 °C, 50 mM Tris-H2SO4 pH 7.5, 50 mM K2SO4; non-reducing SDS-PAGE
Conditions: both partners purified

- binding result: binds
B1: mutant BF1 ε subunit (133C, a Cys introduced at the C-terminus) (natural protein, Bacillus subtilis, UniProt P37812 1-132, looked up)
chain: MKTVKVNIVTPDGPVYDADIEMVSVRAESGDLGILPGHIPTVAPLKIGAVRLKKDGQTEMVAVSGGFVEVRPDHVTILAQAAETAEGIDKERAEAARQRAQERLNSQSDDTDIRRAELALQRALNRLDVAGKC
